In article PMC2651826 (Biochemistry, 2008):

Experiments:
[1] = molecular target: RS1 from retinal membrane extracts (bovine (endogenous in retinal membranes)); assay: non-reducing SDS gel electrophoresis with western blot
[2] = molecular target: T1, wild-type RS1 (retinoschisin), secreted from HEK 293 cells (human), O15537; assay: as above; settings: remark: other sources report otherwise
T1 chain: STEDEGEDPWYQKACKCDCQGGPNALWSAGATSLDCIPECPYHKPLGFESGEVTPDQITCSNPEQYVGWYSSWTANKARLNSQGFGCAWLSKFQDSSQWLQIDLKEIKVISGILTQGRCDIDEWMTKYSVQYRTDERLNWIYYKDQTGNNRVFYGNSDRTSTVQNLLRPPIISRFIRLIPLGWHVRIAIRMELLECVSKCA

[3] = molecular target: T2, recombinant RS1 secreted from stably transformed Sf21 insect cells (human), O15537; assay: non-reducing SDS gel electrophoresis with Coomassie Blue staining; settings: remark: other sources report otherwise
T2 chain: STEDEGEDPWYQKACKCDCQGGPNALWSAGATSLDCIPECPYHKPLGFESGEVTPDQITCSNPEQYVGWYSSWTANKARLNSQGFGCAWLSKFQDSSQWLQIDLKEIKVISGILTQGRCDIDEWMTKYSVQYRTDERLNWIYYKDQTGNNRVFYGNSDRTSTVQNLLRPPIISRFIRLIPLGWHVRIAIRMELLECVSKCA

[4] = molecular target: T2, recombinant RS1 secreted from stably …; assay: non-reducing SDS gel electrophoresis with western blot; settings: remark: other sources report otherwise
[5] = molecular target: the molecule itself; assay: as above
[6] = molecular target: T3, RS1 secreted from Weri-retinoblastoma cells (human (endogenous in Weri-Rb1)), O15537; assay: as above; settings: remark: other sources report otherwise
T3 chain: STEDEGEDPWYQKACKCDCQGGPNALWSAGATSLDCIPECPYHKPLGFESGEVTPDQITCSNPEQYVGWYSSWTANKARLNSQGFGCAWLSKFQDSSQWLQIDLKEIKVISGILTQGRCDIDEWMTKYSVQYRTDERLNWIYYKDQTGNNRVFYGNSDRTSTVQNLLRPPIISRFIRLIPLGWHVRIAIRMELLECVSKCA

## RS1 from retinal membrane extracts (natural protein)
[1]
  stoichiometry N: 8

B1: wild-type RS1 (retinoschisin), secreted from HEK 293 cells, O15537 24-224 (natural protein)
chain: STEDEGEDPWYQKACKCDCQGGPNALWSAGATSLDCIPECPYHKPLGFESGEVTPDQITCSNPEQYVGWYSSWTANKARLNSQGFGCAWLSKFQDSSQWLQIDLKEIKVISGILTQGRCDIDEWMTKYSVQYRTDERLNWIYYKDQTGNNRVFYGNSDRTSTVQNLLRPPIISRFIRLIPLGWHVRIAIRMELLECVSKCA
[2]
  stoichiometry N: 8

B2: recombinant RS1 secreted from stably transformed Sf21 insect cells, O15537 24-224 (natural protein)
chain: STEDEGEDPWYQKACKCDCQGGPNALWSAGATSLDCIPECPYHKPLGFESGEVTPDQITCSNPEQYVGWYSSWTANKARLNSQGFGCAWLSKFQDSSQWLQIDLKEIKVISGILTQGRCDIDEWMTKYSVQYRTDERLNWIYYKDQTGNNRVFYGNSDRTSTVQNLLRPPIISRFIRLIPLGWHVRIAIRMELLECVSKCA
[3]
  stoichiometry N: 8
[4]
  stoichiometry N: 8

B3: RS1 C59S/C223S double cysteine mutant (natural protein, human, UniProt O15537 24-224, looked up)
chain: STEDEGEDPWYQKACKCDCQGGPNALWSAGATSLDSIPECPYHKPLGFESGEVTPDQITCSNPEQYVGWYSSWTANKARLNSQGFGCAWLSKFQDSSQWLQIDLKEIKVISGILTQGRCDIDEWMTKYSVQYRTDERLNWIYYKDQTGNNRVFYGNSDRTSTVQNLLRPPIISRFIRLIPLGWHVRIAIRMELLECVSKSA
[5]
  stoichiometry N: 2

B4: RS1 secreted from Weri-retinoblastoma cells, O15537 24-224 (natural protein)
chain: STEDEGEDPWYQKACKCDCQGGPNALWSAGATSLDCIPECPYHKPLGFESGEVTPDQITCSNPEQYVGWYSSWTANKARLNSQGFGCAWLSKFQDSSQWLQIDLKEIKVISGILTQGRCDIDEWMTKYSVQYRTDERLNWIYYKDQTGNNRVFYGNSDRTSTVQNLLRPPIISRFIRLIPLGWHVRIAIRMELLECVSKCA
[6]
  stoichiometry N: 8
